What all share (experiment): SEC; analytical gel filtration of affinity-purified 6xHis-tagged VP3s, Superdex-200 5/150 calibrated with catalase, serum albumin, ovoalbumine and chymotrypsinogen A; 20 mM Tris-HCl pH 7.5, 150 mM NaCl, 4°C, 0.5 ml/min
Data set [1] addresses 6xHis-tagged IBDV VP3 Patch2 mutant (R159D, R168D, H198D, R200D) (Infectious bursal disease virus (IBDV)).
For data set [2], the target named is 6xHis-tagged IBDV VP3 Patch1 mutant (K99D, R102D, K105D, K106D) (Infectious bursal disease virus (IBDV)).
Data set [3] deals with the molecule itself.

Consider “6xHis-tagged IBDV VP3 Patch2 mutant (R159D, R168D, H198D, R200D) (natural protein)”, for which the stoichiometry N in data set [1] is 2.
Consider “6xHis-tagged IBDV VP3 Patch1 mutant (K99D, R102D, K105D, K106D) (natural protein)”, for which, in data set [2], the stoichiometry N came out at 2.

B1: 6xHis-tagged full-length IBDV VP3 (wild type) (natural protein)
chain: ASEFKETPELESAVRAMEAAANVDPLFQSALSVFMWLEENGIVTDMANFALSDPNAHRMRNFLANAPQAGSKSQRAKYGTAGYGVEARGPTPEEAQREKDTRISKKMETMGIYFATPEWVALNGHRGPSPGQVKYWQNKREIPDPNEDYLDYVHAEKSRLASEEQILRAATSIYGAPGQAEPPQAFIDEVAKVYEINHGRGPNQEQMKDLLLTAMEMKHRNPRRALPKPKPKPNAPTQRPPGRLGRWIRTVSDEDLE
notes: VP3 of Infectious bursal disease virus (IBDV), the cut product of the viral polyprotein (pVP2-VP4-VP3); numbers count on: the VP3 polypeptide itself (C-terminal region printed as 222-258), not the polyprotein; also called VP3 WT; wild type IBDV VP3
For B1, the “stoichiometry N” value in data set [3] was 2.

Values taken from paper PMC3458112, “The VP3 Factor from Viruses of Birnaviridae Family Suppresses RNA Silencing by Binding Both Long and Small RNA Duplexes” (PLoS ONE, 2012).
